{"source": "patent US20190359693A1", "experiment_in_all_cases": "cell-based or functional assay", "key": {"[1]": {"target": "hemagglutinin (HA) of influenza A/Shanghai/2/13 (H7N9) (influenza A virus)"}, "[2]": {"target": "hemagglutinin (HA) of influenza A/Chick/Germany/N/49 (H10N7) (influenza A virus)"}, "[3]": {"target": "hemagglutinin (HA) of influenza A/Victoria/210/09 (H3N2) (influenza A virus)"}, "[4]": {"target": "hemagglutinin (HA) of influenza A/Taiwan/2/2013 (H6N1) (influenza A virus)"}, "[5]": {"target": "hemagglutinin (HA) of influenza A/Wisconsin/67/05 (H3N2) (influenza A virus)"}, "[6]": {"target": "hemagglutinin (HA) of influenza A/Great Cormorant/MP2934/04 (H9N2) (influenza A virus)"}, "[7]": {"target": "hemagglutinin (HA) of influenza A/Mississippi/03/01 274H (H1N1) (influenza A virus)"}, "[8]": {"target": "hemagglutinin (HA) of influenza A/Common Teal/MPF139/07 (H7N7) (influenza A virus)"}, "[9]": {"target": "hemagglutinin (HA) of influenza A/Panama/2007/99 (H3N2) (influenza A virus)"}, "[10]": {"target": "hemagglutinin (HA) of influenza A/HK/54/98 (H1N1) (influenza A virus)"}, "[11]": {"target": "hemagglutinin (HA) of influenza A/Eurasian Wigeon/MPG1884/09 (H6N1) (influenza A virus)"}, "[12]": {"target": "hemagglutinin (HA) of influenza A/Vietnam/1194/04 (H5N1) (influenza A virus)"}, "[13]": {"target": "hemagglutinin (HA) of influenza A/Northern Shoveler/MPE2531/08 (H10N9) (influenza A virus)"}, "[14]": {"target": "hemagglutinin (HA) of influenza A/PR8 H7N7-NY (H7N7) (influenza A virus)"}, "[15]": {"target": "hemagglutinin (HA) of influenza A/Christchurch/16/10 (H1N1) (influenza A virus)"}, "[16]": {"target": "hemagglutinin (HA) of influenza A/Guiyang/1/57 (H2N2) (influenza A virus)"}, "[17]": {"target": "hemagglutinin (HA) of influenza B/Brisbane/60/08 (Victoria) (influenza B virus)"}, "[18]": {"target": "hemagglutinin (HA) of influenza A/Solomon Islands/3/2006 (IVR 145) (H1N1) (influenza A virus)"}, "[19]": {"target": "hemagglutinin (HA) of influenza A/Perth/16/09 (H3N2) (influenza A virus)"}, "[20]": {"target": "hemagglutinin (HA) of influenza A/Northern Pintail/MPB1368/06 (H4N1) (influenza A virus)"}, "[21]": {"target": "hemagglutinin (HA) of influenza B/Massachusetts/02/12 (Yamagata) (influenza B virus)"}, "[22]": {"target": "hemagglutinin (HA) of influenza A/Netherlands/219/2003 (H7N7) (influenza A virus)"}}, "data": [{"substance": "MD3606 (Fc fusion)", "values": [{"measurement": "Average neutralization titers", "setting": "[1]", "value": 22.8, "unit": "nM"}, {"measurement": "Average neutralization titers", "setting": "[2]", "value": 10.2, "unit": "nM"}, {"measurement": "Average neutralization titers", "setting": "[3]", "value": 6.5, "unit": "nM"}, {"measurement": "Average neutralization titers", "setting": "[4]", "value": 14.5, "unit": "nM"}, {"measurement": "ADCC induction (EC50 grade, FcγRIIIa reporter bioassay)", "setting": "[5]", "value": "< 0.1", "unit": "µg/mL"}, {"measurement": "Average neutralization titers", "setting": "[5]", "value": 6.5, "unit": "nM"}, {"measurement": "Average neutralization titers", "setting": "[6]", "value": 9.7, "unit": "nM"}, {"measurement": "Average neutralization titers", "setting": "[7]", "value": 4.7, "unit": "nM"}, {"measurement": "Average neutralization titers", "setting": "[8]", "value": 26.3, "unit": "nM"}, {"measurement": "Average neutralization titers", "setting": "[9]", "value": 40.5, "unit": "nM"}, {"measurement": "Average neutralization titers", "setting": "[10]", "value": 5, "unit": "nM"}, {"measurement": "Average neutralization titers", "setting": "[11]", "value": 11.6, "unit": "nM"}, {"measurement": "Average neutralization titers", "setting": "[12]", "value": 5.7, "unit": "nM"}, {"measurement": "Average neutralization titers", "setting": "[13]", "value": 20.7, "unit": "nM"}, {"measurement": "Average neutralization titers", "setting": "[14]", "value": 8.1, "unit": "nM"}, {"measurement": "Average neutralization titers", "setting": "[15]", "value": 1, "unit": "nM"}, {"measurement": "Average neutralization titers", "setting": "[16]", "value": 26.7, "unit": "nM"}, {"measurement": "ADCC induction (EC50 grade, FcγRIIIa reporter bioassay)", "setting": "[17]", "value": "< 0.1", "unit": "µg/mL"}, {"measurement": "Average neutralization titers", "setting": "[17]", "value": 1, "unit": "nM"}, {"measurement": "Average neutralization titers", "setting": "[18]", "value": 1.6, "unit": "nM"}, {"measurement": "Average neutralization titers", "setting": "[19]", "value": 5.7, "unit": "nM"}, {"measurement": "Average neutralization titers", "setting": "[20]", "value": 2.6, "unit": "nM"}, {"measurement": "Average neutralization titers", "setting": "[21]", "value": 1, "unit": "nM"}, {"measurement": "Average neutralization titers", "setting": "[22]", "value": 20.4, "unit": "nM"}]}]}
